Experimental data: paper PMC10714925
pKd: −log10 of the molar value.

Test system: Clp-GST (Xanthomonas oryzae pv. oryzae PXO99A)
Assay: MST
Conditions: MST: 50 mM Tris pH 7.5, 150 mM NaCl, 10 mM MgCl2, 0.05% Tween 20, 25 C, buffer not given

In the case of xanfur promoter, FAM-labeled, the pKd was 9.16.
